Values joined by “and” are separate entries in the source; they are usually repeats but may differ in a detail not shown here. Identical values can stand only once. Like-named read-outs stand apart in the source and are kept apart here.
How the values were obtained:
T. guaymasensis ADH [1] = target: T1, T. guaymasensis ADH (Thermococcus guaymasensis, UniProt F8S123); test: Kinetic parameters, alcohol oxidation with NADP+; type: biochemical; conditions: co-substrate NADP^+ (0.4 mM)
Description: (§1) The purified enzyme (0.25 μg) initiated the enzyme assay. […] The protein concentrations of all samples were determined using the Bradford method and bovine serum albumin served as the standard protein (Bradford 1976).
(§2) Apparent values of Km and Vmax were calculated using the curve fittings of SigmaPlot (Systat Software Inc., San Jose, Calif., USA).

T. guaymasensis ADH [2] = target: T1, T. guaymasensis ADH; test: Kinetic parameters, ketone reduction with NADPH; type: biochemical
Description: as §1, §2

[3] = Optimum pH of enzyme activity; type: biochemical
Description: (§3) The effect of pH on the enzyme activities was determined over a range of 5.5-11.4. The buffers (100 mM) used were phosphate (pH 5.5-8.0), EPPS (8.0-9.0), glycylglycine (9.0-9.7), and CAPS (9.7-11.4). The effect of the temperature on the enzyme activity was examined at temperatures from 30 to 95° C. Enzyme thermostability was determined by incubating the enzyme in sealed serum bottles at 80° C. and 95° C., respectively. Residual activity was assayed at various time intervals under the standard assay conditions. Substrate specificity was determined using primary and secondary alcohols (50 mM), diols and polyols (50 mM), or aldehydes and ketones (6 mM) under standard assay conditions.
All the catalytic properties of native and recombinant TgADH were determined using the in vitro enzyme assay described above. The optimal pH of ethanol-dependent oxidation of native and recombinant TgADHs was determined by testing and comparing the enzyme activity at a series of pHs. Standard enzyme assay at 80° C. were applied using a set of 100 mM buffers: HEPES (pH 6.5, 7.0, 7.5 and 8.0), EPPS (pH 8.0, 8.5, 8.8, 9.0), glycine (pH 9.0, 9.5, 10.0) and CAPS (pH 10.0, 10.5, 11.0). The optimal pH of acetaldehyde-dependent reduction of native and recombinant TgADH was measured between pH 5.5 and 9.5 using the following buffers (100 mM): citrate (pH 5.5 and 6.0), PIPES (pH 6.0, 6.5 and 7.0), HEPES (pH 7.0, 7.5 and 8.0), EPPS (pH 8.0, 8.5, and 9.0), and glycine (pH 9.0 and 9.5).

[4] = Temperature dependence of enzyme activity; type: biochemical
Description: as §3
(§4) The effect of the temperature on the enzyme activity was examined at temperatures from 30 to 95° C. The activities were measured using standard assay conditions. Enzyme thermostability was evaluated by incubating the enzyme in sealed serum bottle at 80° C. and 95° C. respectively, and measuring the residual activities at different time intervals under the standard assay conditions.

[5] = Description: as §3, with “Enzyme thermostability was determined by incubating the enzyme in sealed serum bottles at 80° C. and 95° C., respectively.” left out
as §4

[6] = Oxygen sensitivity (residual activity after exposure to air); type: physicochemical; conditions: for t1/2 upon exposure to the air: room temperature
Description: The effect of oxygen on enzyme activity was investigated by exposing the enzyme samples in the air at room temperature and determining the residual activity after oxygen exposure. The exposure was performed in the presence or absence of DDT and SDT. The residual activities of each sample at different time intervals were tested parallelly under the standard assay conditions.

[7] = ADH specific activity (spectrophotometric enzyme assay); type: biochemical; conditions: 80° C.; for Specific activity: standard assay
Description: as §1
The reaction was initiated by adding enzymes.

T. guaymasensis ADH [8] = target: T1, T. guaymasensis ADH; test: Stereoselective conversion between acetoin and 2,3-butanediol (chiral GC); type: biochemical
Description: All the reactions were carried out at 30° C. for 24 hours unless specified. After that, the reaction mixture (1 ml) was extracted with 1 ml ethyl acetate or dichloride methane with shaking on a Gyrotory water bath shaker model G76 (New Brunswick Scientific Co., INC., NJ, USA) at 350 rpm for 30 min (room temperature). The stereoselectivity of the purified enzyme was determined using the Shimadzu GC-14A gas chromatography equipped with a CP-Chirasil-Dex CB column (0.25 mm ID×25 m length, Varian Inc., Palo Alto, Calif., USA). The following GC operating conditions included the FID detector (250° C.) at a sensitivity range of 10 and helium as the carrier gas at a linear velocity of 40 cm s^−1. […] The reaction mixture after extraction (0.5 μl) was directly applied onto the injector (200° C.) for each assay. The peak areas were quantitated using specific external standards.

[9] = remark: listed apart in the source
Excerpt: Enzymes resistant to solvent inactivation are of great interest from scientific and practical points of view.

[10] = cited from earlier work

Molecule: C[C@H](O)[C@H](C)O [(2S,3S)-(+)-2,3-butanediol]
- Apparent Vmax (T. guaymasensis ADH [1]): 769 U mg^−1
- kcat (T. guaymasensis ADH [1]): 512 s⁻¹

Molecule: nicotinamide adenine dinucleotide phosphate [NADPH]
- Apparent Km for NADPH, times lower than for NADP^+ (T. guaymasensis ADH [2]): 40 times

B1: recombinant TgADH: recombinant wild-type TgADH polypeptide (SEQ ID NO: 8) expressed in E. coli BL21-codon plus RIL with vector pET30a (protein)
chain: MHHHHHHSSGLVPRGSGMKETAAAKFERQHMDSPDLGTDDDDKAMADIGSEFMSKMRGFAMVDFGKAEWIEKERPKPGPYDAIVKPIAVAPCTSDIHTVFEAAFPREMCEFPRILGHEAVGEVVEVGSHVKDFKPGDRVVVPAITPDWRTLDVQRGYHQHSGGMLAGWKFSNPLKEGGKDGVFAEYFHVNDADMNLAHLPDEIKPEVAVMATDMMTTGFHGAELADIPLGGTVAVIGIGPVGLMAVAGARLLGAGRIIAVGSRPVCVEAAKYYGATDIVNRREHPDIAGRILELTGGEGVDSVIIAGGNVDVMKTAVKIVKPGGTVANINYFGSGDYLPIPRIEWGQGMAHKTIKGGLCPGGRLRMERLLDLIKYGRVDPSRLITHKFKGFDKIPEALYLMKDKPKDLIKPVVIIEE
modifications: Wild-type with vector coding region
- Optimal pH, formation of alcohols (2-butanone reduction) [3]: 7.5
- Optimal pH, oxidation of alcohols (2-butanol) [3]: 10.5
- Highest activity in temperature dependence test ([4]; at 95° C.): 1533 U/mg
- t1/2 (thermostability) [5]: about 26 hours
- Enzyme activity after heat treatment of cell extract (in words) ([5]; 60° C. for half an hour): no loss
- Residual activity after incubation ([5]; 42 hours at 80° C.): more than 60%
- t1/2 upon exposure to the air [6]: about 4 hours
- Specific activity [7]: 1079 U/mg and 1073 U/mg
- Specific activity ([7]; listed as recombinant enzyme): 1073 U/mg

B2: TgADH: alcohol dehydrogenase purified from Thermococcus guaymasensis, SEQ ID NO:4, homotetramer, zinc-containing, NADP^+-dependent (protein, listed as Thermococcus guaymasensis)
chain: SKMRGFAMVDFGKAEWIEKERPKPGPYDAIVKPIAVAPCTSDIHTVFEAAFPREMCEFPRILGHEAVGEVVEVGSHVKDFKPGDRVVVPAITPDWRTLDVQRGYHQHSGGMLAGWKFSNPLKEGGKDGVFAEYFHVNDADMNLAHLPDEIKPEVAVMATDMMTTGFHGAELADIPLGGTVAVIGIGPVGLMAVAGARLLGAGRIIAVGSRPVCVEAAKYYGATDIVNRREHPDIAGRILELTGGEGVDSVIIAGGNVDVMKTAVKIVKPGGTVANINYFGSGDYLPIPRIEWGQGMAHKTIKGGLCPGGRLRMERLLDLIKYGRVDPSRLITHKFKGFDKIPEALYLMKDKPKDLIKPVVIIEE
modifications: homotetramer, zinc-containing
- Optimal pH, acetaldehyde reduction [3]: 7.5
- Optimal pH, ethanol oxidation [3]: 10.5
- Optimal pH, formation of alcohols (2-butanone reduction) [3]: 7.5
- Optimal pH, oxidation of alcohols (2-butanol) [3]: 10.5
- Chiral compound synthesis preference (T. guaymasensis ADH [8]): R-configured
- Enzyme activity remaining, of full activity [9]: about 40%
- Methanol concentration at which half of full activity remained [9]: about 24 % (v/v)
- Methanol concentration up to which the enzyme was active [9]: up to 40 % (v/v)
- Solvent tolerance ([9]; methanol): 24% methanol
- Enzyme activity retained (in words) ([9]; methanol up to 5% (v/v)): almost its full activity
- Optimal temperature ([4]; tested 30 to 95° C.): over 95 °C
- Thermostability [5]: 24 hr at 95 °C
- t1/2 (thermostability) [5]: 70 h
- Activity after incubation ([5]; 80° C. for 40 hours): 60%
- Activity after exposure to air (in words) ([6]; exposed to air for a week): lost activity
- t1/2 upon exposure to the air [6]: 6 h
- t1/2 upon exposure to the air ([6]; listed as T. guaymasensis ADH): about 4 hours
- Enzyme (specific) activity ([7]; 2-butanol as assay substrate): 1149 U mg^−1
- Specific activity [7]: 1049 U/mg

B3: T. brockii: T brockii ADH available at Sigma Aldrich, essentially T ehtanolicus ADH (protein, UniProt P14941 1-352, looked up)
NADP-dependent isopropanol …: MKGFAMLSIGKVGWIEKEKPAPGPFDAIVRPLAVAPCTSDIHTVFEGAIGERHNMILGHEAVGEVVEVGSEVKDFKPGDRVVVPAITPDWRTSEVQRGYHQHSGGMLAGWKFSNVKDGVFGEFFHVNDADMNLAHLPKEIPLEAAVMIPDMMTTGFHGAELADIELGATVAVLGIGPVGLMAVAGAKLRGAGRIIAVGSRPVCVDAAKYYGATDIVNYKDGPIESQIMNLTEGKGVDAAIIAGGNADIMATAVKIVKPGGTIANVNYFGEGEVLPVPRLEWGCGMAHKTIKGGLCPGGRLRMERLIDLVFYKRVDPSKLVTHVFRGFDNIEKAFMLMKDKPKDLIKPVVILA
- Thermostability ([10]; at 93.8° C.): 60 min at
- Solvent tolerance ([10]; isopropanol): 64%

From US8476051B2, “Thermostable alcohol dehydrogenase derived from Thermococcus guaymasensis” (priority 2008, dated 2013)
